Tests used:
Test in all cases: fluorescence polarisation
[1] = target: T1, Mdb1 pT113 fluorescein-labelled phosphopeptide; settings: chain shown with the change; point at 40 µM protein; parent: est. 140; read off a plot
T1 chain: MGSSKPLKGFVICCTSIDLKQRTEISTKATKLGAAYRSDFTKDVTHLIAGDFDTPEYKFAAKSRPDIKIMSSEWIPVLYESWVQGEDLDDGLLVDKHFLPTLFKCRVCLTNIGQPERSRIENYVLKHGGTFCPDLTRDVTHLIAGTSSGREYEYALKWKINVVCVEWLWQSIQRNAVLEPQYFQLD

[2] = target: T2, Treslin pS1001 fluorescein-labelled phosphopeptide; settings: for response: chain shown with the change, point at 40 µM protein, parent: est. 83, read off a plot; for Kd: chain shown with the change;, parent: 0.60 ± 0.03 µM
T2 chain: GYGDIGVVEESPEKGDEI

[3] = target: T3, Treslin pT969 fluorescein-labelled phosphopeptide; settings: for response: chain shown with the change, point at 40 µM protein, parent: est. 70, read off a plot
T3 chain: GYGLTKSVAETPVHKQIS

[4] = target: T4, Treslin pS1001 fluorescein-labelled phosphopeptide; settings: chain shown with the change; point at 40 µM protein; parent: est. 83; read off a plot
T4 chain: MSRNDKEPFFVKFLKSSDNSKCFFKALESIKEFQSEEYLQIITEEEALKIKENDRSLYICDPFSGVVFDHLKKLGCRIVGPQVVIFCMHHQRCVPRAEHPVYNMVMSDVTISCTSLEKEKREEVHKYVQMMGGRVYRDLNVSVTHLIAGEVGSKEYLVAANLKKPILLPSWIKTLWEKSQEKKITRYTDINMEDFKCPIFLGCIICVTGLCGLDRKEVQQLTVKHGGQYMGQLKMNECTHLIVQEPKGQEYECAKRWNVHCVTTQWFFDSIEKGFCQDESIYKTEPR

[5] = target: T5, Treslin pT969 fluorescein-labelled phosphopeptide; settings: chain shown with the change; point at 40 µM protein; parent: est. 70; read off a plot
T5 chain: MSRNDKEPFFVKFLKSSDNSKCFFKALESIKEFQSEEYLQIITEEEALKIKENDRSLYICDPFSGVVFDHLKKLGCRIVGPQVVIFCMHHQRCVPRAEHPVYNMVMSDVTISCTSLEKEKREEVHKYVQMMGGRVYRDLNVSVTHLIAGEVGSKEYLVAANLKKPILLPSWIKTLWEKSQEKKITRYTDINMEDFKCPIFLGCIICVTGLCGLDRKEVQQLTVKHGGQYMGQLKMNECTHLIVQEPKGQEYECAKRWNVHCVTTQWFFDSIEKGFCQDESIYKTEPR

[6] = target: T6, Mdb1 pT113 fluorescein-labelled phosphopeptide; settings: chain shown with the change; point at 40 µM protein; parent: est. 140; read off a plot
T6 chain: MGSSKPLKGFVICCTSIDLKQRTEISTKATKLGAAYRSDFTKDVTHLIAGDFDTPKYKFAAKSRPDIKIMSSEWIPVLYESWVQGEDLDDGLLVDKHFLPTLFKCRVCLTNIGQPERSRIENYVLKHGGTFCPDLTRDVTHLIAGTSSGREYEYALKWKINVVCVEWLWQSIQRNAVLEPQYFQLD

| Binder | response [2] [millidegrees] | Kd [2] [nM] | response [3] [millidegrees] | other results |
| --- | --- | --- | --- | --- |
| GYGGVMTVPNTPQKPNLQ [Rad4-BRCT1,2 segment, wild type (recombinant, fluorescence polarisation), P32372 K56E; K151E] | – | – | – | response [1]: 30 millidegrees |
| TOPBP1-BRCT0,1,2 segment, wild type (recombinant, fluorescence polarisation) K250E (protein) MSRNDKEPFFVKFLKSSDNSKCFFKALESIKEFQSEEYLQIITEEEALKIKENDRSLYICDPFSGVVFDHLKKLGCRIVGPQVVIFCMHHQRCVPRAEHPVYNMVMSDVTISCTSLEKEKREEVHKYVQMMGGRVYRDLNVSVTHLIAGEVGSKKYLVAANLKKPILLPSWIKTLWEKSQEKKITRYTDINMEDFKCPIFLGCIICVTGLCGLDRKEVQQLTVKHGGQYMGQLKMNECTHLIVQEPKGQEYECAKRWNVHCVTTQWFFDSIEKGFCQDESIYKTEPR | 41 | 350 | 30 | – |
| TOPBP1-BRCT0,1,2 segment, wild type (recombinant, fluorescence polarisation) K155E (protein) MSRNDKEPFFVKFLKSSDNSKCFFKALESIKEFQSEEYLQIITEEEALKIKENDRSLYICDPFSGVVFDHLKKLGCRIVGPQVVIFCMHHQRCVPRAEHPVYNMVMSDVTISCTSLEKEKREEVHKYVQMMGGRVYRDLNVSVTHLIAGEVGSKEYLVAANLKKPILLPSWIKTLWEKSQEKKITRYTDINMEDFKCPIFLGCIICVTGLCGLDRKEVQQLTVKHGGQYMGQLKMNECTHLIVQEPKGQKYECAKRWNVHCVTTQWFFDSIEKGFCQDESIYKTEPR | 68 | 730 | 46 | Kd ([3]; chain shown with the change;, parent: 0.94 ± 0.06 µM): 1000 nM |
| GYGDIGVVEESPEKGDEI | – | – | – | response [4]: 12 millidegrees |
| GYGLTKSVAETPVHKQIS | – | – | – | response [5]: 0 millidegrees |
| GYGGVMTVPNTPQKPNLQ [Rad4-BRCT1,2 segment, wild type (recombinant, fluorescence polarisation), P32372 K151E] | – | – | – | response [6]: 92 millidegrees |
